Source: US20210130436A1 (published 2021)
Substitutions are numbered along the chain they refer to. Names may count otherwise.

B1: CD80 WT IgV-Fc (Fc fusion, not shown: a dimerising Fc or GST)
chain: VIHVTKEVKEVATLSCGHNVSVEELAQTRIYWQKEKKMVLTMMSGDMNIWPEYKNRTIFDITNNLSIVILALRPSDEGTYECVVLKYEKDAFKREHLAEVTLSVKAD
notes: Wild-type control; also called WT CD80-IgV-Fc
B2: CD80 variant E35D/M47V/N48K/V68M/K89N IgV (SEQ ID NO: 2250)-Fc (inert) (Fc fusion)
chain: VIHVTKEVKEVATLSCGHNVSVEELAQTRIYWQKDKKMVLTMMSGDVKIWPEYKNRTIFDITNNLSIMILALRPSDEGTYECVVLKYENDAFKREHLAEVTLSVKADGSGGGGSEPKSSDKTHTCPPCPAPEAEGAPSVFLFPPKPKDTLMISRTPEVTCVVVDVSHEDPEVKFNWYVDGVEVHNAKTKPREEQYNSTYRVVSVLTVLHQDWLNGKEYKCKVSNKALPAPIEKTISKAKGQPREPQVYTLPPSREEMTKNQVSLTCLVKGFYPSDIAVEWESNGQPENNYKTTPPVLDSDGSFFLYSKLTVDKSRWQQGNVFSCSVMHEALHNHYTQKSLSLSPG
notes: also called E35D/M47V/N48K/V68M/K89N CD80 IgV-Fc; CD80 vIgD-Fc
B3: variant CD80 IgV-Fc E35D/D46E/M47V/V68M/D90G/K93E (Fc fusion, not shown: small tags and cut ends; a dimerising Fc or GST)
chain: B1 chain with E35D, D46E, M47V, V68M, D90G, K93E
notes: Fc fusion of the variant IgV
B4: variant CD80 IgV-Fc E35D/M47L/A71G/L85M/F92Y (Fc fusion, not shown: small tags and cut ends; a dimerising Fc or GST)
chain: B1 chain with E35D, M47L, A71G, L85M, F92Y
notes: Fc fusion of the variant IgV
B5: CD80 variant E35D/D46V/M47L/V68M/L85Q/E88D IgV (SEQ ID NO: 2280)-Fc (inert) (Fc fusion)
chain: B2 chain with D46V, V47L, K48N, L85Q, E88D, N89K
notes: also called E35D/D46V/M47L/V68M/L85Q/E88D CD80 IgV-Fc; CD80 vIgD-Fc

Key:
human PD-L1 [1] = biological target: T1, human PD-L1 (human, UniProt Q9NZQ7 19-290); assay: cell-based or functional assay
T1 sequence (Q9NZQ7 19-290): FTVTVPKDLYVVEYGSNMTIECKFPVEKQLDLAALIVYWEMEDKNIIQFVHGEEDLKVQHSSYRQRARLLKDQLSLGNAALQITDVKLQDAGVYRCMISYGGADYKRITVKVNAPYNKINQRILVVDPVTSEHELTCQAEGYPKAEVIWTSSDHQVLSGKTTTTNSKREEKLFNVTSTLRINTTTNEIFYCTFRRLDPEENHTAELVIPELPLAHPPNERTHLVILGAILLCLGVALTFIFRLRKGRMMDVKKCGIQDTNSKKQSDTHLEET

human CD28 = human CD28 (human, UniProt P10747 19-220); assay: flow cytometry, Jurkat cells (CD28)
human PD-L1 [2] = biological target: T1, human PD-L1; assay: flow cytometry; PD-L1 MFI over CD28 MFI
human CTLA-4 = biological target: T2, human CTLA-4 (human, UniProt P16410 36-223); assay: flow cytometry, CHO cells stably expressing CTLA4
T2 construct: also called huCTLA4
T2 sequence (P16410 36-223): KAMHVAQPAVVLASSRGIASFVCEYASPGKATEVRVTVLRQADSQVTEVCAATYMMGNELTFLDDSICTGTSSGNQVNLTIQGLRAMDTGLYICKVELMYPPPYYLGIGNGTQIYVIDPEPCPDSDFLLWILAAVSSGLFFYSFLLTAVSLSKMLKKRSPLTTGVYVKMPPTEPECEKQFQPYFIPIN

human PD-L1 [3] = biological target: T1, human PD-L1; assay: flow cytometry, CHO cells stably expressing PD-L1
[4] = biological target: T3, human CD28, on Jurkat/IL2 reporter cells or primary human T cells (human, UniProt P10747 19-220); assay: flow cytometry on unactivated primary human pan T cells (CD28+), anti-human IgG detection (FIG. 19A)
T3 construct: Endogenous CD28 of Jurkat cells or of primary human T cells

[5] = biological target: T4, human PD-L1, expressed on cells (human, UniProt Q9NZQ7 19-290); assay: flow cytometry on CD14+ monocytes (monocyte-expressed PD-L1) of PBMC cultured overnight with anti-CD3 and anti-CD28 (FIG. 19B)
T4 construct: On CHO/PD-L1, K562/OKT3/PD-L1 and CHO/OKT3/PD-L1 aAPC, huPD-L1-transduced MC38 cells, or primary human monocytes; also called huPD-L1; hPD-L1
T4 sequence (Q9NZQ7 19-290): as the sequence (Q9NZQ7 19-290) above

[6] = biological target: T5, human PD-L1, expressed on CHO cells (human, UniProt Q9NZQ7 19-290); assay: flow cytometry on CHO cells stably expressing human PD-L1; PE anti-human Fc
T5 construct: Full-length surface expression construct transduced by lentivirus into CHO cells; also called huPD-L1; CD274
T5 sequence (Q9NZQ7 19-290): as above

[7] = biological target: T6, human CTLA-4 (CTLA4), expressed on CHO cells (human, UniProt P16410 36-223); assay: flow cytometry on CHO cells stably expressing human CTLA-4; PE anti-human Fc
T6 construct: Full-length surface expression construct transduced by lentivirus into CHO cells; also called huCTLA4
T6 sequence (P16410 36-223): as the sequence (P16410 36-223) above

[8] = biological target: T5, human PD-L1, expressed on CHO cells; assay: flow cytometry; ratio of MFI on PD-L1 CHO cells to MFI on Jurkat (CD28) cells
[9] = biological target: T7, CD28, endogenously expressed on Jurkat/IL2 reporter cells (human, UniProt P10747 19-220); assay: flow cytometry on Jurkat/IL2 reporter cells (endogenous CD28); PE anti-human Fc
T7 construct: Endogenous CD28 of Jurkat/IL2 reporter cells

[10] = biological target: T5, human PD-L1, expressed on CHO cells; assay: flow cytometry on CHO cells stably expressing human PD-L1; MFI relative to WT CD80 ECD-Fc (R&D)
[11] = biological target: T6, human CTLA-4 (CTLA4), expressed on CHO …; assay: flow cytometry on CHO cells stably expressing human CTLA-4; MFI relative to WT CD80 ECD-Fc (R&D)
[12] = biological target: T7, CD28, endogenously expressed on …; assay: flow cytometry on Jurkat/IL2 reporter cells (endogenous CD28); MFI relative to WT CD80 ECD-Fc (R&D)

Row | Binder | binding result [4] | binding result [5] | MFI at 33.3 nM [6] | MFI at 33.3 nM [7] | Ratio of PDL1:CD28 [8] | MFI at 33.3 nM [9] | Fold change to WT CD80 [10] | Fold change to WT CD80 [11] | Fold change to WT CD80 [12] | other results
1 | B1 |  |  |  |  |  |  |  |  |  | Fold Increase over WT CD80-IgV-Fc, Jurkat/IL2 + CHO/OKT3/PD-L1 Reporter Assay (human PD-L1 [1]): 1 fold; Fold change to WT CD80 (human CD28): 3 fold; MFI at 33.3 nM (human CD28): 95 MFI; Ratio of PDL1:CD28 (human PD-L1 [2]): 0.5 ratio; Fold change to WT CD80 (human CTLA-4): 15.1 fold; MFI at 33.3 nM (human CTLA-4): 26400 MFI; Fold change to WT CD80 (human PD-L1 [3]): 0.9 fold; MFI at 33.3 nM (human PD-L1 [3]): 44 MFI
2 | B2 | binds | binds |  |  |  |  |  |  |  | 
3 | B3 |  |  | 71900 MFI | 273000 MFI | 3 ratio | 27100 MFI | 6.06 fold | 1.74 fold | 1.5 fold | 
4 | B4 |  |  | 46700 MFI | 216000 MFI | 19 ratio | 2460 MFI | 3.93 fold | 1.37 fold | 0.14 fold | 
5 | B5 | binds | binds |  |  |  |  |  |  |  | 
